Read-outs that look alike come from different tables or passages of the source.
How the values were obtained:
Assay in all cases: microtiter plate binding assay
[1] = target: Bovine cardiac myosin (bovine) (UniProt Q9BE39)
[2] = target: Bovine cardiac myosin (bovine) (UniProt Q9BE39); remark: listed apart in the source
[3] = target: Rabbit skeletal muscle myosin (rabbit) (UniProt Q28641)
UniProt Q28641, sequence (Q28641 whole entry, chain 1 of 3): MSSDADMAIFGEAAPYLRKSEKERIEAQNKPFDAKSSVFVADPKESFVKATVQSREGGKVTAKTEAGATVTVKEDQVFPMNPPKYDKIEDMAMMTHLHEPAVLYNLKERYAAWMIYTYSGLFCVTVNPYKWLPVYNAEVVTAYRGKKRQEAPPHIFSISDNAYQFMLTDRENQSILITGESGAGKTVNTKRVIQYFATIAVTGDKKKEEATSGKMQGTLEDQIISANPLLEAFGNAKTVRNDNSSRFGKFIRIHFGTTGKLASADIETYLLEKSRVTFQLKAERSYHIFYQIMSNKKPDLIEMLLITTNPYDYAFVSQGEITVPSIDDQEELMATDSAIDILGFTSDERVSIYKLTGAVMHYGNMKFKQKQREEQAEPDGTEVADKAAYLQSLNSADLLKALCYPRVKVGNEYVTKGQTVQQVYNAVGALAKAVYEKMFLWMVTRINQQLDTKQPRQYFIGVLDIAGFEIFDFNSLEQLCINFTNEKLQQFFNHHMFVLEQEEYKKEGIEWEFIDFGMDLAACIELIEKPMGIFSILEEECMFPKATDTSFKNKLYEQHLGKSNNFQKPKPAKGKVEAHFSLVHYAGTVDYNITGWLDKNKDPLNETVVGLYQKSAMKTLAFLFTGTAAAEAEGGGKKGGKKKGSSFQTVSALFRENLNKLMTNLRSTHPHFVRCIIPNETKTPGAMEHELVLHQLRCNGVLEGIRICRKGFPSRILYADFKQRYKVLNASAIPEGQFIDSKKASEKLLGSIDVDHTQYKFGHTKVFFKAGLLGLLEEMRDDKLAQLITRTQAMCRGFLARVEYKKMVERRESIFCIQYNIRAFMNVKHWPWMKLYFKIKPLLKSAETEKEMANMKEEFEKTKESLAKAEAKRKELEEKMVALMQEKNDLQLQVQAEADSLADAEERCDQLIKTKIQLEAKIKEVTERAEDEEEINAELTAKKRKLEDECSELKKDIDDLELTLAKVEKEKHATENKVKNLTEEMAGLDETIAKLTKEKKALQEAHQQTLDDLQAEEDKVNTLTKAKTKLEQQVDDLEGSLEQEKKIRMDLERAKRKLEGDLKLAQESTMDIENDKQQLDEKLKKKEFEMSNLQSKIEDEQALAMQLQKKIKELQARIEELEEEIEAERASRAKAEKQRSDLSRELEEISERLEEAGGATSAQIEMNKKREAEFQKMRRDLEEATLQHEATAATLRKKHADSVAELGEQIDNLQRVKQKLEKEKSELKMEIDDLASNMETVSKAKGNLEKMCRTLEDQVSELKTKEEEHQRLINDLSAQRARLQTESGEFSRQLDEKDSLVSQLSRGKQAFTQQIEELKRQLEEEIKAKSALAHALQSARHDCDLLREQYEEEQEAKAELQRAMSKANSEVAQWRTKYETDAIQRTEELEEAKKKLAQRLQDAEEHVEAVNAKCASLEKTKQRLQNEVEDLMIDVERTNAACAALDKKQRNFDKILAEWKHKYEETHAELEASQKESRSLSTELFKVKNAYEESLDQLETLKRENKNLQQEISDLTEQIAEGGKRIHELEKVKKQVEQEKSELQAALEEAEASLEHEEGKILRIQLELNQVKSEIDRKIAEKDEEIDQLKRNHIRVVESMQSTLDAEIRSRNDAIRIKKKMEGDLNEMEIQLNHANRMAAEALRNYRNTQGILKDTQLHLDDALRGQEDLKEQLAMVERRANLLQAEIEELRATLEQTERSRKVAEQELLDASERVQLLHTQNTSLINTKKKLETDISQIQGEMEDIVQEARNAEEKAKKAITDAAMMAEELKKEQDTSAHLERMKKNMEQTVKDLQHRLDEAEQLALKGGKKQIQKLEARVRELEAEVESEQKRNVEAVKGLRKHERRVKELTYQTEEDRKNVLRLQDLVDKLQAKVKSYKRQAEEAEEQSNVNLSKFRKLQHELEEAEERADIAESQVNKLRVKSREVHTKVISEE
UniProt Q28641, sequence (P02602 2-192, chain 2 of 3, further chain): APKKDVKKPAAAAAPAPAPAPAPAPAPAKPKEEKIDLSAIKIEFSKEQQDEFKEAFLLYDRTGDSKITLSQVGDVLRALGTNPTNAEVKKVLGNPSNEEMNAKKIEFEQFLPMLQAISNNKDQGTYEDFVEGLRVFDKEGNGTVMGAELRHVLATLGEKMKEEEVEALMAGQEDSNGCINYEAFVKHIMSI
UniProt Q28641, sequence (P02608 2-170, chain 3 of 3, further chain): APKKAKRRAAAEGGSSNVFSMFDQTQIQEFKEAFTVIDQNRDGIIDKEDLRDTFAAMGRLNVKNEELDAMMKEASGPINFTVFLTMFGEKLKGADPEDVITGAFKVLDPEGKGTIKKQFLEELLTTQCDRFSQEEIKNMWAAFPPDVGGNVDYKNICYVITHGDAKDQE

Substance Human factor Xa (enzyme) has a Kd [1] of 21 nM, a Kd [2] of 108 nM and a Kd [3] of 80.4 nM.
